Assay results as given in the supplement of paper PMC10065799, “High-throughput profiling of sequence recognition by tyrosine kinases and SH2 domains using bacterial peptide display” (eLife, 2023).

How the values were obtained:
Jak2 = Jak2 (UniProt O60674); assay: phosphorylation enrichment, bacterial display (enrichment ratio); higher = better substrate or ligand; peptides without Tyr show the background
EPHB1 = EPHB1 (UniProt P54762); assay: as above
AncSZ = assay: as above
MERTK = MERTK (UniProt Q12866); assay: as above
EPHB2 = EPHB2 (UniProt P29323); assay: as above
Fer (mouse) = assay: as above
Hck = Hck (UniProt P08631); assay: as above
c-Abl (mouse) = assay: as above
Fes = Fes (UniProt P07332); assay: as above
FGFR3 = FGFR3 (UniProt P22607); assay: as above
c-Src = assay: as above
Fyn = Fyn (UniProt P06241); assay: as above
FGFR1 = FGFR1 (UniProt P11362); assay: as above
c-Src SH2 = assay: SH2 binding enrichment of the phosphorylated peptide, bacterial display (enrichment ratio); higher = better substrate or ligand; peptides without Tyr show the background
Grb2 SH2 = Grb2 SH2 (UniProt P62993); assay: as above
SHP2-C SH2 = assay: as above
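Wherever SH2 binding enrichment of the phosphorylated peptide, bacterial display is given: peptide library displayed on the E. coli surface as eCPX fusions, selected cells deep-sequenced, score is each peptide's frequency after selection divided by its frequency in the input.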
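Wherever phosphorylation enrichment, bacterial display is given: 11-residue human phosphosite peptides and single-mutation variants displayed on the E. coli surface, counted by deep sequencing, each peptide's frequency after selection divided by its frequency in the unselected input library; frequency after pTyr selection over input frequency; kinase dosed for 20-30% of maximal phosphorylation in three min.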

Hck, sequence (P08631 whole entry, looked up): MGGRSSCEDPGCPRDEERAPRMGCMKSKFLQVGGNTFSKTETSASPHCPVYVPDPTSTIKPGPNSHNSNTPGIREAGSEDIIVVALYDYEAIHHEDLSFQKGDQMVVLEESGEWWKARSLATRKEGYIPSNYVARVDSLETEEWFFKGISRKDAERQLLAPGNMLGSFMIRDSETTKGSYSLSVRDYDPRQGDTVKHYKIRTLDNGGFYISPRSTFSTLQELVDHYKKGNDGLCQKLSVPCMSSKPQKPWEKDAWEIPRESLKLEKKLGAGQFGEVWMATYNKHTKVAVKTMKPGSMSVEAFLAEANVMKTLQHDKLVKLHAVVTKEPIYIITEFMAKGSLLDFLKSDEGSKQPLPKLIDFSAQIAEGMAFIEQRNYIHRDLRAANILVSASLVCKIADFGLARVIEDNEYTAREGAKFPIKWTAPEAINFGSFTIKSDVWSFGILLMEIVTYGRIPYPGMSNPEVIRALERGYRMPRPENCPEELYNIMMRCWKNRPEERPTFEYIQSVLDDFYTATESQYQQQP
FGFR1, sequence (P11362 whole entry, looked up): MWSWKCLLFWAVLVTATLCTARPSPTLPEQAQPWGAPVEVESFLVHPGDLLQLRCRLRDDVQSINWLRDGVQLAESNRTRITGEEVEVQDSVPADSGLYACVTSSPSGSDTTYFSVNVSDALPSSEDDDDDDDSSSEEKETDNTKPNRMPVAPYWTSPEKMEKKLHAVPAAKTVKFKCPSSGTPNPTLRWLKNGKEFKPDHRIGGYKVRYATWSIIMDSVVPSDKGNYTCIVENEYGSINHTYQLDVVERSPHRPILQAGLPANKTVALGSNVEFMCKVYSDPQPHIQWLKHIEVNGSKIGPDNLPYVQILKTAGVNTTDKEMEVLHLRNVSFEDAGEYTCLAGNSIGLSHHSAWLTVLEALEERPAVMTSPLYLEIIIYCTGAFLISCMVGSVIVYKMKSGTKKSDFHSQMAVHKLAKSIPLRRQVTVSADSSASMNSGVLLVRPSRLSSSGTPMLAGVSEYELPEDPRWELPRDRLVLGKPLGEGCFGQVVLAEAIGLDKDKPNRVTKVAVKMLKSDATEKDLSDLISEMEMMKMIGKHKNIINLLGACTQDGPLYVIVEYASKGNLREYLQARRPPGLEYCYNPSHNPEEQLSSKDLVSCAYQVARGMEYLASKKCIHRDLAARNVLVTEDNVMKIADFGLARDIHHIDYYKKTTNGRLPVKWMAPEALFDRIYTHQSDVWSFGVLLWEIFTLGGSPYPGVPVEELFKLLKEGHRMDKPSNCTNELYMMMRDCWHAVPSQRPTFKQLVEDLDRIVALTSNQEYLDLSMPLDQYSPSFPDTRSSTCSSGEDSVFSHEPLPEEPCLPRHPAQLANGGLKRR
Fyn, sequence (P06241 whole entry, looked up): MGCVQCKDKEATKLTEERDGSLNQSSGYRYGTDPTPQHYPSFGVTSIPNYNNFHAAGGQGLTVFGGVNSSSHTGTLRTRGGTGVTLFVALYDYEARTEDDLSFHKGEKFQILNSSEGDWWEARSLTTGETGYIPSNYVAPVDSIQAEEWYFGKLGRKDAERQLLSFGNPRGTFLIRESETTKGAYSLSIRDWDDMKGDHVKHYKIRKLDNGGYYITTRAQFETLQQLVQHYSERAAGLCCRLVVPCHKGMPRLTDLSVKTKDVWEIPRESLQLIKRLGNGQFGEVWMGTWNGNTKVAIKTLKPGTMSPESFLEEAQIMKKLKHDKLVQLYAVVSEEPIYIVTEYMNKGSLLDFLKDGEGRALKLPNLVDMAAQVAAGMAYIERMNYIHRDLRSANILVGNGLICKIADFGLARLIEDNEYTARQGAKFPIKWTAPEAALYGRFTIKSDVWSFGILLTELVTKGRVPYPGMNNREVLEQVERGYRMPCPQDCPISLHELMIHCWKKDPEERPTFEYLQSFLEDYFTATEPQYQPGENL
MERTK, sequence (Q12866 whole entry, looked up): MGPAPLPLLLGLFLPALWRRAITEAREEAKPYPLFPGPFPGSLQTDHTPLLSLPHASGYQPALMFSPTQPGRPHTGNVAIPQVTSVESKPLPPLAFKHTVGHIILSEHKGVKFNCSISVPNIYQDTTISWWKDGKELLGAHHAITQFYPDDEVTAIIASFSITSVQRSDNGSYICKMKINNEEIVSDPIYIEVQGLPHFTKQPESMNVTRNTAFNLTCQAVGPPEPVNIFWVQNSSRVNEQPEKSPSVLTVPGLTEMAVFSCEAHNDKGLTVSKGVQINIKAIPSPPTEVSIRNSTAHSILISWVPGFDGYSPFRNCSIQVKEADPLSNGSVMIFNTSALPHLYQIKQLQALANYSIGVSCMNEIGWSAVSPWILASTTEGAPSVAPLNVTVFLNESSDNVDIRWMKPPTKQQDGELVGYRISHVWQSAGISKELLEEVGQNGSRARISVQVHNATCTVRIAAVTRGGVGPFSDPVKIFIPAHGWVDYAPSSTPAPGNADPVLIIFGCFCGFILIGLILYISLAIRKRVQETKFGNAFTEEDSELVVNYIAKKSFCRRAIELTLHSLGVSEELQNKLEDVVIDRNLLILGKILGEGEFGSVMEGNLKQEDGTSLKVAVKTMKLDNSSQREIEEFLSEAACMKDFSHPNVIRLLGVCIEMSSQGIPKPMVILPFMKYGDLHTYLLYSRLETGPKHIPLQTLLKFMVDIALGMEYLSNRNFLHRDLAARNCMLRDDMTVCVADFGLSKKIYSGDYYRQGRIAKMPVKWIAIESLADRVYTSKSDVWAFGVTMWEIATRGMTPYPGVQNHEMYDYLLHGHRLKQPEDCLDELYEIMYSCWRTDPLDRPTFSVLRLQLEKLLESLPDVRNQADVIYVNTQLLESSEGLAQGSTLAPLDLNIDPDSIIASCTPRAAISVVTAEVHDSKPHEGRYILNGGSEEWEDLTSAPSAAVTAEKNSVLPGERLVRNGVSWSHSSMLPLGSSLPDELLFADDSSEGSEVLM
Fes, sequence (P07332 whole entry, looked up): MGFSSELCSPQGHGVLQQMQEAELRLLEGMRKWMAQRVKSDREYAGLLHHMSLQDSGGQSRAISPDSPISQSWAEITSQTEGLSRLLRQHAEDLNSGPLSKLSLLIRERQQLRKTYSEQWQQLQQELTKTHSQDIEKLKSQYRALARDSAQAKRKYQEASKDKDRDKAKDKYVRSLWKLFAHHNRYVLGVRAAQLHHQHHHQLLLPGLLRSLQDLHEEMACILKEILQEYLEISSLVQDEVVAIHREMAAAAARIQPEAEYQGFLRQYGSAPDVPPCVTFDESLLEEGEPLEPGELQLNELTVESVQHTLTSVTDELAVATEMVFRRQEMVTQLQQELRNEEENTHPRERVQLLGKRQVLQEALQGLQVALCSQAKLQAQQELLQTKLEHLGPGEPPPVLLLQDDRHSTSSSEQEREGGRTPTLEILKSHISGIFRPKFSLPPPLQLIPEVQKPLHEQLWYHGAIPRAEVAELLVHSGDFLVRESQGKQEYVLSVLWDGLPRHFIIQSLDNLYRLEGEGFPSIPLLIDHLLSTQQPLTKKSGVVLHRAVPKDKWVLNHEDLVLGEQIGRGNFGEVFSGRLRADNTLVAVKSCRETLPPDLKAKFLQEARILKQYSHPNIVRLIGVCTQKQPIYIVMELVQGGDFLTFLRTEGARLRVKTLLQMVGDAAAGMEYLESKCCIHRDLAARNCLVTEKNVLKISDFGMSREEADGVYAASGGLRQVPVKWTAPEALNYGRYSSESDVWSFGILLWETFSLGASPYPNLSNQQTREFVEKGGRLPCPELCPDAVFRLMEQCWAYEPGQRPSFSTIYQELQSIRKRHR
EPHB1, sequence (P54762 whole entry, looked up): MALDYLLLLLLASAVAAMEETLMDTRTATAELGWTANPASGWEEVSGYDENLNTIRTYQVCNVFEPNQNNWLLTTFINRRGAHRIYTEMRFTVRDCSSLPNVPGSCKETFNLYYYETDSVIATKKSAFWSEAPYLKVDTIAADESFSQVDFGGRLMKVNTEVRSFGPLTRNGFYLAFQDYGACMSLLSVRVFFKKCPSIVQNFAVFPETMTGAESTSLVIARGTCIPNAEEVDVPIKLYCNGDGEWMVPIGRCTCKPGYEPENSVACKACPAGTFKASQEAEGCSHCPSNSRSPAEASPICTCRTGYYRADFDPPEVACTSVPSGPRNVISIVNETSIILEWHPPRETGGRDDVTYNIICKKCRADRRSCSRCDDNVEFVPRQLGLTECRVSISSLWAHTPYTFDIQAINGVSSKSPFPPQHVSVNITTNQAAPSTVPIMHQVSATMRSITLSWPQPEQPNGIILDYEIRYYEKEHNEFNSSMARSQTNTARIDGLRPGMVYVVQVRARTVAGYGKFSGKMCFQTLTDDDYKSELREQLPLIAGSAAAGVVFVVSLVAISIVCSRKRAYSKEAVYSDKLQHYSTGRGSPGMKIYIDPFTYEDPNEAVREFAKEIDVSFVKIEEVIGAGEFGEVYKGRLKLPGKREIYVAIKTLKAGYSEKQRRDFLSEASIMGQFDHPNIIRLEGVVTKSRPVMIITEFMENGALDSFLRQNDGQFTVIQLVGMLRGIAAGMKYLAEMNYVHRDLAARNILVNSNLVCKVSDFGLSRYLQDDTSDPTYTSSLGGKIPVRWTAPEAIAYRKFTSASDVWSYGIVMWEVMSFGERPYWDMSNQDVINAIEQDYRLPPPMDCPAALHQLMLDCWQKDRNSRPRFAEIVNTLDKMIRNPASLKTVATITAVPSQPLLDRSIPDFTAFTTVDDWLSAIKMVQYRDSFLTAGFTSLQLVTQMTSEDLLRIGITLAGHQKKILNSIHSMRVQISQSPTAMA

Row | Sequence | SH2 binding enrichment (c-Src SH2) | SH2 binding enrichment (Grb2 SH2) | SH2 binding enrichment (SHP2-C SH2) | phosphorylation enrichment (Jak2) | phosphorylation enrichment (EPHB1) | phosphorylation enrichment (AncSZ) | phosphorylation enrichment (MERTK) | phosphorylation enrichment (EPHB2) | phosphorylation enrichment (Fer (mouse)) | phosphorylation enrichment (Hck) | phosphorylation enrichment (c-Abl (mouse)) | phosphorylation enrichment (Fes) | phosphorylation enrichment (FGFR3) | phosphorylation enrichment (c-Src) | phosphorylation enrichment (Fyn) | phosphorylation enrichment (FGFR1)
1 | TLQNMYGCDVG [HLA-B_Y123_S121N] | 0.643 | 1.01 | 0.765 | 0.989 | 0.702 | 0.886 | 0.446 | 0.581 | 0.64 | 0.625 | 0.756 | 1.2 | 0.669 | 0.601 | 0.586 | 0.545
2 | SLIEHYEPSET [PLCD1_Y258_R257H] | 0.929 | 0.927 | 0.806 | 0.983 | 0.541 | 1.05 | 0.422 | 0.548 | 0.525 | 0.535 | 0.624 | 0.977 | 0.704 | 0.446 | 0.513 | 0.586
3 | NYSKMYCNPDA [KNL1_Y489_A486S] | 2.63 | 3.18 | 0.819 | 0.819 | 0.536 | 0.794 | 0.414 | 0.45 | 0.435 | 0.469 | 0.566 | 0.914 | 0.521 | 0.349 | 0.396 | 0.483
4 | CTTIHYNFMCK [TP53_Y234_N239K_YF] | 1.68 | 1.4 | 2.05 | 0.631 | 0.403 | 0.659 | 0.407 | 0.387 | 0.351 | 0.533 | 0.562 | 0.816 | 0.489 | 0.413 | 0.476 | 0.418
5 | REVKAYGAGLL [TH_Y419_G414R] | 0.618 | 0.786 | 0.776 | 0.53 | 0.487 | 0.559 | 0.411 | 0.405 | 0.853 | 0.419 | 0.55 | 0.649 | 0.817 | 0.363 | 0.532 | 0.411
6 | LGGSPYPRVPV [FGFR1_Y701_G703R] | 0.469 | 0.784 | 0.836 | 0.507 | 0.356 | 0.435 | 0.4 | 0.426 | 0.444 | 0.412 | 0.483 | 0.55 | 0.471 | 0.426 | 0.429 | 0.47
7 | GTGTAYLCGVK [ALPL_Y117_A114G] | 0.543 | 0.902 | 0.679 | 0.675 | 0.551 | 0.694 | 0.379 | 0.412 | 0.511 | 0.395 | 0.685 | 0.754 | 0.489 | 0.348 | 0.435 | 0.446

The next lines start with results.

Row | SH2 binding enrichment (c-Src SH2) | SH2 binding enrichment (Grb2 SH2) | SH2 binding enrichment (SHP2-C SH2) | Sequence | phosphorylation enrichment (Jak2) | phosphorylation enrichment (EPHB1) | phosphorylation enrichment (AncSZ) | phosphorylation enrichment (MERTK) | phosphorylation enrichment (EPHB2) | phosphorylation enrichment (Fer (mouse)) | phosphorylation enrichment (Hck) | phosphorylation enrichment (c-Abl (mouse)) | phosphorylation enrichment (Fes) | phosphorylation enrichment (FGFR3) | phosphorylation enrichment (c-Src) | phosphorylation enrichment (Fyn) | phosphorylation enrichment (FGFR1)
8 | 1.54 | 1.38 | 1.6 | GCRSKYVRLWG [KCNQ1_Y184_G186R] | 0.636 | 0.383 | 0.628 | 0.444 | 0.409 | 0.472 | 0.461 | 0.492 | 0.696 | 0.486 | 0.495 | 0.425 | 0.462
9 | 0.607 | 0.868 | 0.598 | QYQLKYSETPF [SIX6OS1_Y129] | 0.7 | 0.743 | 1 | 0.838 | 0.907 | 0.43 | 0.722 | 0.808 | 1.1 | 0.769 | 0.519 | 0.591 | 0.598
10 | 0.742 | 0.757 | 0.607 | NVVVPYEPPEV [TP53_Y220_S215N] | 1.11 | 0.612 | 1.11 | 0.493 | 0.708 | 0.58 | 0.56 | 0.768 | 1.15 | 0.69 | 0.543 | 0.641 | 0.443
11 | 0.634 | 1.05 | 0.884 | LANNEYFFRVC | 1.38 | 0.733 | 1.23 | 0.517 | 0.917 | 0.505 | 0.53 | 0.698 | 1.19 | 1.47 | 0.55 | 0.74 | 1.31
12 | 0.474 | 0.924 | 0.522 | DKTGEYPVPLT [ACADM_Y73_I78T] | 0.649 | 0.502 | 0.863 | 0.44 | 0.438 | 0.397 | 0.382 | 0.57 | 0.902 | 0.578 | 0.448 | 0.487 | 0.426
13 | 0.746 | 0.907 | 2.06 | GITTGYLVLKE [DNMT3B_Y588_A585T] | 0.616 | 0.39 | 0.668 | 0.334 | 0.532 | 0.542 | 0.438 | 0.389 | 0.797 | 0.572 | 0.371 | 0.404 | 0.456
14 | 0.463 | 0.674 | 0.605 | MRALIYNSSTV [PLEKHA7_Y243_A248V] | 0.726 | 0.447 | 0.669 | 0.405 | 0.657 | 0.51 | 0.754 | 0.872 | 0.824 | 0.57 | 0.77 | 0.714 | 0.447
15 | 1.05 | 3.37 | 0.668 | LDPMVYMNDTS [PTK2B_Y834_K838T] | 1.48 | 0.494 | 0.958 | 0.7 | 0.734 | 0.787 | 0.728 | 1.32 | 1.11 | 0.708 | 0.811 | 0.588 | 0.64
16 | 0.674 | 0.843 | 0.878 | IDFARYWHGDD [MMP11_Y162] | 0.639 | 0.676 | 0.81 | 0.536 | 0.504 | 0.799 | 0.463 | 0.592 | 0.857 | 0.567 | 0.387 | 0.405 | 0.477
17 | 0.899 | 1.32 | 1.54 | PFTRNYYVWAV [CYBA_Y87_R90W] | 2.5 | 3.1 | 1.41 | 6.79 | 3.42 | 1.2 | 1.03 | 4.71 | 1.12 | 8.21 | 0.777 | 0.744 | 9.92
